Data published in publication PMC4622713.

Tests used:
[1] = molecular target: FcRn (UniProt P55899); assay: SPR
[2] = molecular target: CT-P13 (Remsima®, infliximab biosimilar); assay: ELISA
[3] = molecular target: Remicade® (infliximab, reference medicinal product); assay: ELISA

Sequence of UniProt P55899 (P55899 whole entry, looked up, tested part not stated): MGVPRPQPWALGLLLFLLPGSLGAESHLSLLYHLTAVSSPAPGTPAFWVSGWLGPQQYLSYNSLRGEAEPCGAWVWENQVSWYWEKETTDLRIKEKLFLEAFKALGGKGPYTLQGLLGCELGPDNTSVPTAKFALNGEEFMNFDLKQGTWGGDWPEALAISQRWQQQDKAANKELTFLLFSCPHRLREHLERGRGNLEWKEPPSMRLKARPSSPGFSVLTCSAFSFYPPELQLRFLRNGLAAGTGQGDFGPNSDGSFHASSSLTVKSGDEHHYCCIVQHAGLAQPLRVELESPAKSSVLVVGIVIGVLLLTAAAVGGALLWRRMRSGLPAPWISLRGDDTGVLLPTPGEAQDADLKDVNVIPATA

Substance	relative binding affinity, average (%) [1]	relative binding affinity, average (%) [2]	relative binding affinity, average (%) [3]
Remicade® (infliximab, reference medicinal product) (antibody)	97%	–	–
CT-P13 (Remsima®, infliximab biosimilar) (antibody)	101%	–	–
C1q (complex)	–	100%	98%
